From publication PMC11601447

Experiments:
[1] = target: bortezomib-bound hClpP (human) (UniProt Q16740); assay: cryo-EM structure
hClpP^dCTE-S153A (human) = hClpP^dCTE-S153A (human) (UniProt Q16740); assay: cryo-EM structure
hClpX E285A (human) = hClpX E285A (human) (UniProt O76031); assay: negative stain EM

“bortezomib-bound hClpP (from UniProt Q16740 58-277) (enzyme)” gave a stoichiometry N [1] of 14.

In the case of “hClpP^dCTE-S153A (from UniProt Q16740 58-277) (enzyme)”, the stoichiometry N (hClpP^dCTE-S153A (human)) is reported as 14.

In the case of “hClpX E285A (from UniProt O76031 57-633) (enzyme)”, the stoichiometry N (hClpX E285A (human)) is reported as 6.
